According to patent US20200131266A1 (STCUBE, published 2020):
Substitutions are numbered along the chain they refer to. One block for each binder: values may come before it.

Target: T1, human BTN1A1 on cells (human, UniProt Q13410 27-526)
T1 construct: also called HEK293T cells overexpressing BTN1A1
T1 sequence: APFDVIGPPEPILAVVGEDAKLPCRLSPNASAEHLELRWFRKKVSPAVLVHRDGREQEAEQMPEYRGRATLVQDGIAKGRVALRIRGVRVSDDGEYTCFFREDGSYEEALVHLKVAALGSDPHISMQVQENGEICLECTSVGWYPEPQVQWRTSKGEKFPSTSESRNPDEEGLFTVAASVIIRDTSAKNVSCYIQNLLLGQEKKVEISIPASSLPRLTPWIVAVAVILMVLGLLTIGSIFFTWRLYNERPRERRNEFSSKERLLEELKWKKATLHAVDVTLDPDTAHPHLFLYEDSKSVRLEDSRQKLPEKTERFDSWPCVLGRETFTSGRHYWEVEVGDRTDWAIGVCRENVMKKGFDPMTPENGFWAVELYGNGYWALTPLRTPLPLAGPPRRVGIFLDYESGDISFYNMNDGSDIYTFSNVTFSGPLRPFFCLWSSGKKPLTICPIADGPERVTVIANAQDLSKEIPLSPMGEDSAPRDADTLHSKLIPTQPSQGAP
Assay: FACS, HEK293T cells overexpressing BTN1A1
Procedure: To identify anti-BTN1A1-Fc MAbs that were specific for and which preferentially bound human BTN1A1-Fc antigen, different types of assays were performed. In a screening assay to detect preferential binding of MAbs to BTN1A1, antibody binding was determined based on the measurement of fluorescence intensity through FACS analysis (using cell membrane bound proteins). By way of example, the assay was performed using the HEK293T human embryonic kidney cell line. Illustratively, HEK293T cells overexpressing BTN1A1 were incubated with anti-BTN1A1 antibodies existing in hybridoma culture supernatant. After washing, secondary antibodies conjugated with FITC were added as detection agent. Fluorescence intensity (measured fluorescence intensity, MFI) was measured via FACS I flow cytometry analysis to assess the relative binding of the anti-BTN1A1 antibodies to membrane bound BTN1A1 WT on cells. […] Based on the binding analysis, sixty seven candidate MAb-producing hybridomas were selected, grown in ADCF medium, and their supernatant containing monoclonal antibody was concentrated and purified.

- FACS (MFI): 2340 MFI
B1: STC2778 (antibody, V domains shown)
VH: QIQLVQSGPELKKPGETVKISCKASGYSFTNYGMNWVKQAPGKGLKWMGWINIYTGETTYGDDFKGRFAFSLETSASTAYLQINNLRSEDTATYFCVRGGTMIMYWGQGTTLTVSS
VL: DIVLTQSPATLSVTPGDSVSLSCRASQSISNNLHWHQQKSHESPRLLIKYASQSMSGIPSRFSGSGSGTDFTLSINSVETEDFGMYFCQQSDSWPLTFGAGTKLELK
notes: mouse hybridoma monoclonal antibody raised against human BTN1A1-Fc, kappa light chain

- FACS (MFI): 841 MFI
B2: STC2739 (antibody, V domains shown)
VH: QVQLKQSGPGLVQPSQSLSITCTVSGFSLTTHGVNWVRQSPGKGLEWLGVIWSGGSTDYNAAFISRLSISKDNSKSQVFFKMNSLQANDTAIYYCARPYYYGAMDYWGQGTSVTVSS
VL: QIVLTQSPSIMSASPGEKVTITCSASSSVSYIHWFQQKPGTSPKLWIYSTSNLASGVPARFSGSGSGTSYSLTISRMEAEDAATYYCQQRSIYPLTFGAGTKLELK
notes: as for B1

- FACS (MFI): 69.5 MFI
B3: STC2602 (antibody, V domains shown)
VH: EVQLQQSGPELVKPGASVKISCKASGFSFIGYYIDWVKQSPGKSLEWIGYIYPSNGETSYHQKCKGKATLTVDKSSSTVNMQLNSLTSEDSAVYYCARYGNYDWFFDVWGAGTTVTVSS
VL: B2 VL with S9A, I32M, L45F, A59I, I92S, L95Y, A99G, L105I
notes: mouse hybridoma monoclonal antibody, kappa light chain
